Results on 26 sequences are retold here after the supplement of paper PMC9732359.

This data set can be described thus: protein stability index of a GFP-peptide fusion (yeast GPS) (PSI 1-4); higher = more stable; sorted into four equal gates, so the index is relative within each strain. Summed up: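 Tiled yeast protein peptides of 17 residues were each joined downstream of GFP, on plasmids that also express Cherry. The pooled library was maintained in yeast, and mid-log cultures in leucine-free medium were sorted into four equal gates on the GFP/Cherry ratio. Plasmids from every gate were amplified by PCR and sequenced on Illumina, with barcodes linking reads to strains. The protein stability index of a peptide is its gate-number-weighted read frequency summed over the gates.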

± gives the uncertainty stated by the source.

On to LIPEDKRDQYLKSASKE [RPL28], for which the protein stability index was determined as 3.1 ± 0.19 (pdr5∆), 1.95 ± 0.18 (san1∆) and 3.36 ± 0.098 (ubr1∆).
Consider SRTFDKYSKLVDNVTLE [SRP72], for which the protein stability index came to 3.37 ± 0.12 (doa10∆), 3.36 ± 0.1 (pdr5∆), 3.44 ± 0.094 (san1∆) and 3.3 ± 0.1 (ubr1∆).
In the same order, the values of ENQPFHGIKDIPIGHVH [AAR2] are 2.79 ± 0.078, 2.98 ± 0.086, 2.89 ± 0.084 and 2.67 ± 0.092.
As to GVERLIPVGDNTVVGIS [PRE4], the protein stability index (doa10∆) was 2.96 ± 0.089, the protein stability index (pdr5∆) came out at 2.91 ± 0.081, the protein stability index (san1∆) was found to be 2.84 ± 0.064 and the protein stability index (ubr1∆) turned out to be 2.69 ± 0.086.
Take LIRNVGTNTYRLGEWSK [POP1]: the protein stability index runs as follows: (doa10∆) 1.9 ± 0.28; (pdr5∆) 1.29 ± 0.22; (san1∆) 1.12 ± 0.28.
For ESVPIYSIDEFFLQRKL [BRR2], the protein stability index worked out at 3.44 ± 0.13 (doa10∆), 3.21 ± 0.062 (pdr5∆), 2.96 ± 0.12 (san1∆) and 3.33 ± 0.057 (ubr1∆).
Regarding GEHISAIVPGQSISGTL [SWP82], the protein stability index reads like this: (doa10∆) 3.41 ± 0.15; (pdr5∆) 3.05 ± 0.13; (san1∆) 2.97 ± 0.17.
For the sequence MVNSHGIRYIRLKQVFN [NNF1], the protein stability index by setting is: (doa10∆) 1.46 ± 0.048; (pdr5∆) 1.67 ± 0.04; (san1∆) 1.88 ± 0.19; (ubr1∆) 1.81 ± 0.052.
For VYKDNLSFIQVRIDLGT [RPO31], the protein stability index came out at 1.28 ± 0.071 (doa10∆), 1.58 ± 0.074 (pdr5∆), 1.79 ± 0.1 (san1∆) and 1.52 ± 0.082 (ubr1∆).
Take LWALLNFLLPDIFGDSE [ISW2]: the protein stability index runs as follows: (doa10∆) 2.15 ± 0.05; (pdr5∆) 1.98 ± 0.05; (san1∆) 2.52 ± 0.07; (ubr1∆) 2.64 ± 0.043.
In the case of AHKLKKSLDSIPMSKTI [FAS2], the protein stability index was determined as 3 ± 0.083 (doa10∆), 3.01 ± 0.078 (pdr5∆), 3.01 ± 0.058 (san1∆) and 2.8 ± 0.083 (ubr1∆).
Taken in the same sequence, the figures for VIWELDDSANIVNVNFM [DIS3] were 2.96 ± 0.049, 2.85 ± 0.057, 3.21 ± 0.042 and 2.99 ± 0.045.
Taken in the same sequence, the figures for TTPEINNFIVERVQSDE [SRP68] were 3.18 ± 0.15, 3.38 ± 0.14, 3.37 ± 0.097 and 2.88 ± 0.13.
Taken in the same sequence, the figures for ITFLIEKAKEMIRLLGS [ECM29] were 2.6 ± 0.12, 2.26 ± 0.1, 2.9 ± 0.11 and 1.7 ± 0.12.
For DNSEYSRNGDFPRTRFE [RPN10], the protein stability index by setting is: (doa10∆) 3.13 ± 0.2; (pdr5∆) 3.12 ± 0.22; (san1∆) 3.45 ± 0.16; (ubr1∆) 3.49 ± 0.17.
With KLHVAAKLPGHKSLIRS [YGL100W/SEH1], the protein stability index (doa10∆) was determined as 1.83 ± 0.11, the protein stability index (pdr5∆) was 2.03 ± 0.13 and the protein stability index (ubr1∆) stood at 2.33 ± 0.094.
Consider HQHGDKVDIFEIPETGE [FAS2], for which the protein stability index (pdr5∆) stood at 2.75 ± 0.28 and the protein stability index (ubr1∆) is 2.54 ± 0.069.
On to MSYVVRILSTLDRELLK [RPT3], for which the protein stability index worked out at 2.31 ± 0.098 (doa10∆), 2.24 ± 0.1 (pdr5∆), 2.55 ± 0.057 (san1∆) and 2.88 ± 0.094 (ubr1∆).
Turning to DLENSPLKTELEANGRS [SSN2], the protein stability index was 3.6 ± 0.094 (doa10∆), 3.59 ± 0.093 (pdr5∆), 3.17 ± 0.096 (san1∆) and 3.51 ± 0.089 (ubr1∆).
Taken in the same sequence, the figures for INKEIFHHWLVEFINKM [SRB8] were 1.49 ± 0.17, 1.76 ± 0.12, 3.03 ± 0.053 and 1.6 ± 0.088.
Consider EVLEKDAAIVKKYKNKT [YGR119C/NUP57], for which the protein stability index runs as follows: (doa10∆) 3.15 ± 0.11; (pdr5∆) 3.24 ± 0.087; (san1∆) 3.16 ± 0.071; (ubr1∆) 3.1 ± 0.096.
Taken in the same sequence, the figures for EGLDLLKLCVQELEKRM [PRE1] were 2.04 ± 0.095, 2.32 ± 0.076, 2.19 ± 0.16 and 2.06 ± 0.059.
Taken in the same sequence, the figures for MLGEDEGNTVLEKGNNP [SWP82] were 3.67 ± 0.13, 3.22 ± 0.19, 3.11 ± 0.099 and 3.69 ± 0.16.
In the same order, the values of TTYSVDDYYKEIIGGGS [ISW2] are 3.32 ± 0.1, 3.02 ± 0.13, 3.19 ± 0.088 and 3.33 ± 0.13.
Regarding LINGHRAPQQSVLQLFQ [SMC2], the protein stability index is, setting by setting: (doa10∆) 3 ± 0.095; (pdr5∆) 2.48 ± 0.069; (san1∆) 2.5 ± 0.063; (ubr1∆) 2.42 ± 0.051.
Regarding FTNELKAELDRYKRENQ [SEM1], the protein stability index is, setting by setting: (doa10∆) 3.09 ± 0.16; (pdr5∆) 3.38 ± 0.14; (san1∆) 2.98 ± 0.11; (ubr1∆) 3.41 ± 0.24.
